Target: E. coli RNA polymerase holoenzyme (native) (E. coli) (UniProt P0A8V2)

P2 Orf82 (Orf82 from Enterobacteria phage P2) (natural protein)
IC50 for inhibition of rrnB P1 transcription, multiround in vitro transcription with E. coli RNAP (4 nM to 2,000 nM factor): 250 nM

Reference: publication PMC9239242
